Test results taken from patent US20240024490A1, “BIFUNCTIONAL MOLECULES FOR SELECTIVE MODIFICATION OF TARGET SUBSTRATES” (The Broad Institute, Inc., priority 2021, published 2024).

Target: SmBiT fused to the N-terminus of BCR-ABL
Test: NanoBiT split-luciferase complementation in cells, LgBiT and SmBiT at the N-terminus of BCR-ABL; complex induced by a homo-bifunctional small molecule (homo-PHICS)

fold increase in luminescence compared to the DMSO/background: 6 fold
Substance: LgBiT fused to the N-terminus of BCR-ABL (enzyme)
